Where a chain is given by its changes, count along the chain named.
B1: J-19.h1 (antibody, human IgG4 S228P, kappa, V domains shown)
VH: QITLKESGPTLVKPTQTLTLTCTFSGFSLNTYAMGVSWIRQPPGKALEWLASIWWNGNKYNNPSLKSRLTVTKDTSKNQVVLTMTNMDPVDTATYYCAHSRIIRFTDYVMDAWGQGTLVTVSS
VL: DIQMTQSPSSLSTSVGDRVTITCRASEDIYNDLAWYQQKPGKAPKLLIYNANSLHTGVASRFSGSGSGTDFTFTISSLQPEDVATYFCQQYYDYPLTFGQGTKLEIKR
notes: Humanized, human IgG4 backbone
B2: J-19.h3 (antibody, human IgG4 S228P, kappa, V domains shown)
VH: B1 VH with I2V, T10S, V71I, T83K, M84V, V90A, L118T
VL: DIVMTQSPSSLSASVGDTVTITCRASEDIYNDLAWYQQKPGKAPQLLLYNANSLHTGVPSRFSGSGSGTDYTLTISTLQPEDFATYYCQQYYDYPLTFGPGTKVHIKR
notes: as for B1
B3: J-19.h2 (antibody, human IgG4 S228P, kappa, V domains shown)
VH: B1 VH
VL: B2 VL
notes: as for B1
B4: J-19.h4 (antibody, human IgG4 S228P, kappa, V domains shown)
VH: B1 VH with I2V, T10A, Q16H, V71I, T72S, V90E, Y95F, Q115R, L118T
VL: B2 VL
notes: as for B1

Target: T1, human LILRB4 (human, UniProt Q8NHJ6 22-448)
T1 construct: Over-expressed on CHO-s cells; also called hLILRB4
Experiment: flow cytometry, LILRB4 CHOs
Procedure: (§1) To test for specificity to hLILRB2 and not towards any of the ten LILR family members, a multiplexed cell-based barcoding approach was used by staining cells with Far Red and/or Violet Cell Trace dyes (Thermo Scientific) according to manufacturer's protocol or left unstained. In brief, cells were washed twice with 1×DPBS and then incubated with diluted dye in 1×DPBS for 20 minutes at 37° C., mixing gently every 5-10 minutes. Dye labeling was quenched by adding equal volume of 100% HI-FBS (Sigma) to the cells. Note that LILRB1, LILRB2, LILRB3, LILRB4, and LILRB5 cell lines are also GFP-positive, while LILRA1, LILRA2, LILRA3, LILRA4, LILRA5, and LILRA6 cell lines are GFP-negative. The cells were then washed twice in 1×DPBS and then all 11 cell lines were combined per well in a 96-well round bottom tissue-culture treated plate. At least 25×10³ cells of each cell-line were plated per well. Cells were then re-suspended in primary antibody (anti-LILRB2 mAbs or control) prepared in FACS buffer (1×DPBS containing 2% HI-FBS (Sigma)+0.05% Sodium Azide). After incubation at 4° C. for 30 minutes, cells were washed twice with 1×DPBS and re-suspended in anti-human IgG-PE (BioLegend) diluted 1:200 in FACS buffer. Following a 30 minute incubation at 4° C., protected from light, cells were washed in 1×DPBS and re-suspended in fix buffer (1.5% paraformaldehyde diluted in 1×DPBS). Samples were analyzed using the Celesta flow cytometer analyzer (BD Biosciences). Geometric mean fluorescence intensity (gMFI) of PE was determined for each antibody across each cell line. Background MFI was detected with isotype control and relative binding of antibodies tested was measured as a fold over isotype.

Binder | binding (fold over iso) | binding result
B1 | 1.22 fold over iso | no binding
B2 | 1.16 fold over iso | no binding
B3 | 0.9 fold over iso | no binding

Target: T2, human LILRB2 expressed on cells (human, UniProt Q8N423 22-597)
T2 construct: CHO-s cells over-expressing full-length human LILRB2, or primary human macrophages and dendritic cells; also called hLILRB2-CHO-s; hLILRB2+ CHO-s
T2 sequence (Q8N423 other isoform, or with tags, fused parts or gaps limits assumed): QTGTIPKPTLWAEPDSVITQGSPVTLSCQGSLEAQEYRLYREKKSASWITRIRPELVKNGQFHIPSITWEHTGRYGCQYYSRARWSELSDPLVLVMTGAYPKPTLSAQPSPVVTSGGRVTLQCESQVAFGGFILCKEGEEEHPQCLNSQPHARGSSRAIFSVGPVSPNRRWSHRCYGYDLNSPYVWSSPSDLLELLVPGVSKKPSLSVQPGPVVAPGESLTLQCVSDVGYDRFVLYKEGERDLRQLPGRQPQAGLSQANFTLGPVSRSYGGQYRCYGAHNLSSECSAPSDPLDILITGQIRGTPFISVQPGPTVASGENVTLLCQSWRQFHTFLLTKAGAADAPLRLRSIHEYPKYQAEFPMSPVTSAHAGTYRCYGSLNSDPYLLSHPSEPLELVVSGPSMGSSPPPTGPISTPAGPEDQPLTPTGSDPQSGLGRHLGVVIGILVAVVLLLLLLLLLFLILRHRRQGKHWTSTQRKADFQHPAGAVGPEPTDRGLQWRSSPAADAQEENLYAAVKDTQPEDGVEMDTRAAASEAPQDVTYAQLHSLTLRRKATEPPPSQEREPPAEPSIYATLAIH
Experiment: HLA-G:LILRB2 blocking; HLA-G tetramer on primary human macrophages, flow cytometry
Procedure: (§2) The potency of select humanized variants in blocking the interaction of HLA-G and HLA-A2 with primary human macrophage-expressed hLILRB2 were assessed. Primary human monocytes were differentiated into macrophages in the presence of M-CSF. After seven days of differentiation, 1×10⁵ HMDMs were plated in 96-well round-bottom tissue culture-treated plate and washed twice with 1×DPBS (Gibco) and then incubated with 50 μL primary antibody (anti-LILRB2 mAbs or control) prepared in FACS buffer (1×DPBS containing 2% HI-FBS (Sigma)+0.05% Sodium Azide). After incubation with mAbs for 30 minutes at 4° C., cells were washed twice in FACS buffer and then resuspended in 50 μL of FACS buffer containing 5 μg/mL APC-conjugated HLA-G or HLA-A2 tetramer (Fred Hutch). Cells were incubated protected from light for 30-60 minutes at 4° C. After incubation with tetramer, cells were washed in FACS buffer and re-suspended in fix buffer (1.5% paraformaldehyde diluted in 1×DPBS). Samples were analyzed using the Celesta flow cytometer analyzer (BD Biosciences).

Binder | EC50
B1 | 162 pM
B2 | 113 pM
B4 | 131 pM
B3 | 122 pM

Target: T3, human LILRA6 (human, UniProt Q6PI73 24-481)
T3 construct: Over-expressed on CHO-s cells; also called hLILRA6
T3 sequence (Q6PI73 24-481 limits assumed): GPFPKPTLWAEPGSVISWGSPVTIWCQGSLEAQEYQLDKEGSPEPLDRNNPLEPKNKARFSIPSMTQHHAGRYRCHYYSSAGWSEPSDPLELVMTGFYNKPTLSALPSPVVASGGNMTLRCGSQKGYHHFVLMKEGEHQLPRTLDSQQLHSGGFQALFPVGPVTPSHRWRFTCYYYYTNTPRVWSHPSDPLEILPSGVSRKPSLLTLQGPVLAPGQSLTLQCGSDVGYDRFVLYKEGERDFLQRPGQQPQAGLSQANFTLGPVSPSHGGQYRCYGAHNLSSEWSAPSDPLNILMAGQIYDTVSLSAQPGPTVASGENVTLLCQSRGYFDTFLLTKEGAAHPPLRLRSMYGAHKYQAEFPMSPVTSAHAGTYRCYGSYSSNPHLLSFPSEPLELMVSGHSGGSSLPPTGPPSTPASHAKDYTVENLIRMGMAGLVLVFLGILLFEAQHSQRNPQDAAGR
Experiment: flow cytometry, LILRA6 CHOs
Procedure: as §1

Binder | binding (fold over iso) | binding result
B1 | 0.98 fold over iso | no binding
B2 | 1.03 fold over iso | no binding
B4 | 1.27 fold over iso | no binding
B3 | 0.74 fold over iso | no binding

Target: T4, human LILRA2 (human, UniProt Q8N149 24-483)
T4 construct: Over-expressed on CHO-s cells; also called hLILRA2
T4 sequence (Q8N149 24-483 S135L limits assumed): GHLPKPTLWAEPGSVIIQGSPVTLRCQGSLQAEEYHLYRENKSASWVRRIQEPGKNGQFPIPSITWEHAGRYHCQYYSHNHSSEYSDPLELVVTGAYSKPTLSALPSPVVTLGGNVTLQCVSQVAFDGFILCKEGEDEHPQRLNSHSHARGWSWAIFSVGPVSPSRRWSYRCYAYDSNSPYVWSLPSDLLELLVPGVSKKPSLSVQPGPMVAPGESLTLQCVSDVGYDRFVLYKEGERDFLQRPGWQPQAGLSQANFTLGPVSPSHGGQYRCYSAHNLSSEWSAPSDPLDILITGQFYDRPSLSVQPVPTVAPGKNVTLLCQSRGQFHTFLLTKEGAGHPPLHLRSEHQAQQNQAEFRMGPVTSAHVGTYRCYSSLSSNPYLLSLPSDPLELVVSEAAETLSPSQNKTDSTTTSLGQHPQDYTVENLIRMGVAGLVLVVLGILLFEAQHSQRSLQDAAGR
Experiment: flow cytometry, LILRA2 CHOs
Procedure: as §1

Binder | binding (fold over iso) | binding result
B1 | 0.88 fold over iso | no binding
B2 | 0.83 fold over iso | no binding
B4 | 0.96 fold over iso | no binding
B3 | 0.66 fold over iso | no binding

Target: T2, human LILRB2 expressed on cells
Experiment: HLA-A2:LILRB2 blocking; HLA-A2 tetramer on primary human macrophages, flow cytometry
Procedure: as §2

Binder | EC50
B1 | 83 pM
B2 | 103 pM
B4 | 106 pM
B3 | 87 pM

Target: human LILRB2-His (human, UniProt Q8N423 22-460)
Sequence (Q8N423 other isoform, or with tags, fused parts or gaps): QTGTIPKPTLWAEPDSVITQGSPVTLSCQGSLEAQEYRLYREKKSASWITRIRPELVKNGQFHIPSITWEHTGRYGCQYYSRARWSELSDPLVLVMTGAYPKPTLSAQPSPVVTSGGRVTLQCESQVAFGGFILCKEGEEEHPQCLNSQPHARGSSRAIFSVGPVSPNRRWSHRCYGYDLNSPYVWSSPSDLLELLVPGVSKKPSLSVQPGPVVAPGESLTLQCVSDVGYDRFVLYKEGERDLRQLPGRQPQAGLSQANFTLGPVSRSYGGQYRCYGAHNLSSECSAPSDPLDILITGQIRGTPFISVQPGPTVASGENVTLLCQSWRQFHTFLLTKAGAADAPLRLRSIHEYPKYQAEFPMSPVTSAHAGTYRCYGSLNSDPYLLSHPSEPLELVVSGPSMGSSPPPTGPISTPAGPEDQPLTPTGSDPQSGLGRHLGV
Experiment: SPR, Sierra Sensors MASS-2; antibody captured on anti-human Fc, LILRB2-His 65 to 0.27 nM, 1:1 Langmuir fit
Procedure: Using a Mass-2 (Sierra Sensors) high capacity amine chip preimmobilized with AffiniPure Goat Anti-Human IgG, Fcγ Fragment Specific antibody, humanized antibodies were captured on the anti-human surface and then binding to human LILRB2-His was measured by flowing six different concentrations from 65 to 0.27 nM of the analyte over the antibody surface. The anti-LILRB2 surface was removed (10 mM Glycine, pH 2.0) and recaptured between all concentrations or buffer only cycles. The data was analyzed using the Sierra Analyzer software (version 3.1.14). All curves were double subtracted and fit to a 1:1 Langmuir Fit.

Binder | Kd | koff | kon
B1 | 2730 pM | 0.00107 s⁻¹ | 391000 M⁻¹ s⁻¹
B2 | 1960 pM | 0.00101 s⁻¹ | 518000 M⁻¹ s⁻¹
B4 | 2330 pM | 0.0012 s⁻¹ | 513000 M⁻¹ s⁻¹
B3 | 4580 pM | 0.00238 s⁻¹ | 521000 M⁻¹ s⁻¹

Target: T5, human LILRB1 (human, UniProt Q8NHL6 24-650)
T5 construct: Over-expressed on CHO-s cells; also called hLILRB1
T5 sequence (Q8NHL6 24-650 limits assumed): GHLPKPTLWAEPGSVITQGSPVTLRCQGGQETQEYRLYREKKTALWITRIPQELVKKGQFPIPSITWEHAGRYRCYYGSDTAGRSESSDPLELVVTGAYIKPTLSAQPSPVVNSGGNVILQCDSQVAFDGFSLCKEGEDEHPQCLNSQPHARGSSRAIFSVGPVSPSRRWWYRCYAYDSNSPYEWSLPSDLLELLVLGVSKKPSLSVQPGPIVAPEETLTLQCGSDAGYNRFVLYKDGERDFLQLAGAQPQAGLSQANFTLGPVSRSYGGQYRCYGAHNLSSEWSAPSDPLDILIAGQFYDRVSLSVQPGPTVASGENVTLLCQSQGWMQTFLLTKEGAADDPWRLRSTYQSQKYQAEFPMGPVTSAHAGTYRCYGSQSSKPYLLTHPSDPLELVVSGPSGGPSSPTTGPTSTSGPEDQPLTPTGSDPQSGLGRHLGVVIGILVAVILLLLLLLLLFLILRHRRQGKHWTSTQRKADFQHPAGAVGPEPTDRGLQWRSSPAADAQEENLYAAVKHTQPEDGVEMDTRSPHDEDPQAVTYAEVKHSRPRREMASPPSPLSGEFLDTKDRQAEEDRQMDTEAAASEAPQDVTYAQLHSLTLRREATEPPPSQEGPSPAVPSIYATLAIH
Experiment: flow cytometry, LILRB1 CHOs
Procedure: as §1

Binder | binding (fold over iso) | binding result
B1 | 0.79 fold over iso | no binding
B2 | 0.84 fold over iso | no binding
B4 | 0.87 fold over iso | no binding
B3 | 0.73 fold over iso | no binding

Target: T6, human LILRA3 (human, UniProt Q8N6C8 24-439)
T6 construct: Over-expressed on CHO-s cells; also called hLILRA3
T6 sequence (Q8N6C8 24-439 limits assumed): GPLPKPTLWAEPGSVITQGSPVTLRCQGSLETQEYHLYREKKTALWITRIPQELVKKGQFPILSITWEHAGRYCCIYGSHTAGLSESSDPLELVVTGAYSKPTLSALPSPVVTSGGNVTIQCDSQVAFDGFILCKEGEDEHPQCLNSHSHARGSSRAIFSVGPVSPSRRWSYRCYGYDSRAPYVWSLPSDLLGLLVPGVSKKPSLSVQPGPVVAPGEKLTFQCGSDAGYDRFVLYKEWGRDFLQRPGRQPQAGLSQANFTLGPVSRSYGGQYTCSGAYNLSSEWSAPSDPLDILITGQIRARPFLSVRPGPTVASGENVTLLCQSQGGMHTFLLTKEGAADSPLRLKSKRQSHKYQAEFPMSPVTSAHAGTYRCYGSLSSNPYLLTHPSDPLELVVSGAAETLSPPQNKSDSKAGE
Experiment: flow cytometry, LILRA3 CHOs
Procedure: as §1

Binder | binding (fold over iso) | binding result
B1 | 0.97 fold over iso | no binding
B2 | 0.92 fold over iso | no binding
B4 | 0.99 fold over iso | no binding
B3 | 0.83 fold over iso | no binding

Target: T2, human LILRB2 expressed on cells
Experiment: flow cytometry, binding to hLILRB2 CHOs

Binder | EC50
B1 | 32 pM
B2 | 32.5 pM
B4 | 1.75 pM
B3 | 447 pM

Target: T7, human LILRA1 (human, UniProt O75019 17-489)
T7 construct: Over-expressed on CHO-s cells; also called hLILRA1
T7 sequence (O75019 17-489 limits assumed): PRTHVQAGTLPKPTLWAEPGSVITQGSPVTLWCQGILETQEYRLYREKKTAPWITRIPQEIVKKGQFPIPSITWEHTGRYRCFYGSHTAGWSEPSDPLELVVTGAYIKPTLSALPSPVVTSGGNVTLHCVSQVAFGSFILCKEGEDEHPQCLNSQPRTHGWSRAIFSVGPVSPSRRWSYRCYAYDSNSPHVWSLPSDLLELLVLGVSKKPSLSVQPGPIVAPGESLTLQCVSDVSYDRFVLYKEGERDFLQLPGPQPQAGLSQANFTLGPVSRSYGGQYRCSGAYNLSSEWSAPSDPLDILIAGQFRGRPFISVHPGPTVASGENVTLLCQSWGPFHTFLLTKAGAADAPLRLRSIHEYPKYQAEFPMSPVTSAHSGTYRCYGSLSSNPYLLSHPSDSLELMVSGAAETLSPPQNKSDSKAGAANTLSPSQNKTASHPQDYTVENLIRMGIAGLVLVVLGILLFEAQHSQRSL
Experiment: flow cytometry, LILRA1 CHOs
Procedure: as §1

Binder | binding (fold over iso) | binding result
B1 | 0.95 fold over iso | no binding
B2 | 1 fold over iso | no binding
B4 | 0.99 fold over iso | no binding
B3 | 0.89 fold over iso | no binding

Target: T2, human LILRB2 expressed on cells
Experiment: flow cytometry, LILRB2 CHOs

Binder | binding (fold over iso)
B1 | 73.2 fold over iso
B2 | 79.4 fold over iso
B4 | 76.5 fold over iso
B3 | 74.5 fold over iso

Target: T8, human LILRB3 (human, UniProt O75022 24-631)
T8 construct: Over-expressed on CHO-s cells; also called hLILRB3
Experiment: flow cytometry, LILRB3 CHOs
Procedure: as §1

Binder | binding (fold over iso) | binding result
B1 | 1 fold over iso | no binding
B2 | 0.97 fold over iso | no binding
B4 | 1.24 fold over iso | no binding
B3 | 0.81 fold over iso | no binding

Target: T2, human LILRB2 expressed on cells
Experiment: cell-based or functional assay

Binder | EC50, IL-6 production by LPS-stimulated HMDMs | EC50, TNFa production by LPS-stimulated HMDMs | IC50, CCL2 production by LPS-stimulated HMDMs | IC50, IL-10 production by LPS-stimulated HMDMs
B1 | 85 pM | 76 pM | 5 pM | 450 pM
B2 | 83 pM | 87 pM | 5900 pM | 270 pM
B4 | 91 pM | 84 pM | 10 pM | 190 pM
B3 | 186 pM | 120 pM | 11 pM | 702 pM

Target: T9, human LILRB5 (human, UniProt O75023 24-590)
T9 construct: Over-expressed on CHO-s cells; also called hLILRB5
T9 sequence (O75023 24-590 P542R limits assumed): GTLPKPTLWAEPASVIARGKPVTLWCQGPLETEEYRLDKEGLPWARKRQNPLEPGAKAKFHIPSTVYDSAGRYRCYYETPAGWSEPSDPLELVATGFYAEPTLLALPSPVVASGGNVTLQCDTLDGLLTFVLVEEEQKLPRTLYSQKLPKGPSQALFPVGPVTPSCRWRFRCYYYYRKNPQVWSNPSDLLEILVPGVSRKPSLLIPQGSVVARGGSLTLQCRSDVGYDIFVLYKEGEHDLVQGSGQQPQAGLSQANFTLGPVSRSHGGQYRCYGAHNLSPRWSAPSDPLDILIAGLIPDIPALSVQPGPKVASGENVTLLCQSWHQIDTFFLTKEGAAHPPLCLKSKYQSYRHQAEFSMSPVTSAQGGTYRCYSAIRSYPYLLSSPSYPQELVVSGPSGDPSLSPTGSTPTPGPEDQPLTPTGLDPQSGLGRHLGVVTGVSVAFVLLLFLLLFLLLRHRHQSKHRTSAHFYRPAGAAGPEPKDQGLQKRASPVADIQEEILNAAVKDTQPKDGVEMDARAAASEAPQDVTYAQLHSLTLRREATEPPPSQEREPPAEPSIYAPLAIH
Experiment: flow cytometry, LILRB5 CHOs
Procedure: as §1

Binder | binding (fold over iso) | binding result
B1 | 1.01 fold over iso | no binding
B2 | 0.95 fold over iso | no binding
B4 | 1.27 fold over iso | no binding
B3 | 0.76 fold over iso | no binding

Target: T10, human LILRA4 (human, UniProt P59901 24-499)
T10 construct: Over-expressed on CHO-s cells; also called hLILRA4
T10 sequence (P59901 other isoform, or with tags, fused parts or gaps limits assumed): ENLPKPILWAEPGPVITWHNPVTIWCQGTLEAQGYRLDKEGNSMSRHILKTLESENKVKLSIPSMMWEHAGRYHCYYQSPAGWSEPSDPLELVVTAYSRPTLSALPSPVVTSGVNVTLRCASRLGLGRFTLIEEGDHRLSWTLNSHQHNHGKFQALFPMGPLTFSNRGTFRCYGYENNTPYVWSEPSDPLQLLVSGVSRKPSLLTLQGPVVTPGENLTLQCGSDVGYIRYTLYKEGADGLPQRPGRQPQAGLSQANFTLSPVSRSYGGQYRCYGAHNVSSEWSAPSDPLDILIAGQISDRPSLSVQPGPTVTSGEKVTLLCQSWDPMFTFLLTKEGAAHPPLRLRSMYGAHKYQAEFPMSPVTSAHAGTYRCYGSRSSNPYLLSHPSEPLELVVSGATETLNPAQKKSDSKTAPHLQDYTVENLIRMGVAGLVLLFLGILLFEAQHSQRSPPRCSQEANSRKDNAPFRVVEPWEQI
Experiment: flow cytometry, LILRA4 CHOs
Procedure: as §1

Binder | binding (fold over iso) | binding result
B1 | 0.95 fold over iso | no binding
B2 | 0.99 fold over iso | no binding
B4 | 1.09 fold over iso | no binding
B3 | 0.84 fold over iso | no binding

Target: T11, human LILRA5 (human, UniProt A6NI73 42-299)
T11 construct: Over-expressed on CHO-s cells; also called hLILRA5
T11 sequence (A6NI73 42-299 limits assumed): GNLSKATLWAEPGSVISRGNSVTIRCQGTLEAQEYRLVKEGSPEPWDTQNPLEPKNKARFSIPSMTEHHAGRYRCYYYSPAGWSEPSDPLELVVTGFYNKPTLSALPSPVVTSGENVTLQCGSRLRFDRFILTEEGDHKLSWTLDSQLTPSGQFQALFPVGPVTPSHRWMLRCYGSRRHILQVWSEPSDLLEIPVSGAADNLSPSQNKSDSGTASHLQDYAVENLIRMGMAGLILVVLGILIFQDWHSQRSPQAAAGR
Experiment: flow cytometry, LILRA5 CHOs
Procedure: as §1

Binder | binding (fold over iso) | binding result
B1 | 1.34 fold over iso | no binding
B2 | 1.22 fold over iso | no binding
B3 | 0.86 fold over iso | no binding

Reference: patent publication US20200339690A1 (JOUNCE THERAPEUTICS, published 2020)
